According to PMC4374980:

Target: cysteine-free green-absorbing Proteorhodopsin
Test: cross-linking

cysteine-free green-absorbing Proteorhodopsin (natural protein)
stoichiometry N: 6
